The text below walks through data of patent US20150239968A1.

Experiment [1] has as its target GDF-15 produced by the prostate cancer cell line LnCap (UniProt Q99988). Briefly: cell-based or functional assay.
In experiment [2] the target is recombinant mature human GDF-15 protein (as expressed in Baculovirus-transfected insect cells) (human) (UniProt Q99988). Briefly: SPR (Biorad ProteOn XPR36, GLC chip), KD=koff/kon, GDF-15 from insect cells immobilized.
Experiment [3] has as its target recombinant mature human GDF-15 protein derived from expression in E. coli (human) (UniProt Q99988). The experiment can be described thus: SPR (Biorad ProteOn XPR36, GLC chip), GDF-15 from E. coli immobilized, antibody as analyte.
Experiment [4] addresses recombinant mature human GDF-15 protein (as expressed in Baculovirus-transfected insect cells) (human) (UniProt Q99988). Briefly: SPR (Biorad ProteOn XPR36, GLC chip), GDF-15 from insect cells immobilized, antibody as analyte, 1:1 Langmuir, 25° C.

“monoclonal anti-human GDF-15 mAb-B1-23 (antibody)” returned a proliferation of LnCap cells (Alamar Blue assay) after 72 hrs in experiment [1] of 30%. Further, in experiment [2], the Kd was determined as 790 pM. In experiment [3], the deviation of rate constants against GDF-15 derived from insect cells is 45% and the fold difference of affinity values against GDF-15 derived from insect cells is less than 2 fold. In experiment [4], the koff amounted to 0.00043 s⁻¹ and the kon was found to be 540000 M⁻¹ s⁻¹.
